This assay concerns the target RELA (wild type) (UniProt Q04206 1-551). Put plainly: cell-based or functional assay.

Where a chain is given by its changes, count along the chain named. In names and notes the source's numbering stands.

Chain of RELA (wild type) (Q04206 whole entry): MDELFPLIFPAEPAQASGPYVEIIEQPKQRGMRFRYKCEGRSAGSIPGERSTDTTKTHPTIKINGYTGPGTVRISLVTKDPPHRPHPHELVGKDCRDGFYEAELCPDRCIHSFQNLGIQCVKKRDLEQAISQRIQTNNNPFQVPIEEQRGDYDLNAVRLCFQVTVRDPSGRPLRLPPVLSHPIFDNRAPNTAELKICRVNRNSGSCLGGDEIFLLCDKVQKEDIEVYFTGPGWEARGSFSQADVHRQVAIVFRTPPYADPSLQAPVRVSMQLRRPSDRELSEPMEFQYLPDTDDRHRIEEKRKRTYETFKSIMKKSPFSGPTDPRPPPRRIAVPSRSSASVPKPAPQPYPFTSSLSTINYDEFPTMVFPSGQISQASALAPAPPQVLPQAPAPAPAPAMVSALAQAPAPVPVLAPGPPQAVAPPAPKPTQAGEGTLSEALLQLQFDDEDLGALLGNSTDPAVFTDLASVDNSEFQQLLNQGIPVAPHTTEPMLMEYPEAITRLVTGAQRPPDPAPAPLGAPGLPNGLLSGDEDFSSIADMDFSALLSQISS

B1: TWIST1 (wild type, Myc-His tagged) (other, not shown: small tags and cut ends)
chain: MMQDVSSSPVSPADDSLSNSEEEPDRQQPPSGKRGGRKRRSSRRSAGGGAGPGGAAGGGVGGGDEPGSPAQGKRGKKSAGCGGGGGAGGGGGSSSGGGSPQSYEELQTQRVMANVRERQRTQSLNEAFAALRKIIPTLPSDKLSKIQTLKLAARYIDFLYQVLQSDELDSKMASCSYVAHERLSYAFSVWRMEGAWSMSASH
With B1, the “IL-8 promoter driven firefly luciferase (FFluc), dual luciferase assay, Ovcar4 cells” value is around 2 fold.

B2: TWIST1 E193A (other, not shown: small tags and cut ends)
chain: B1 chain with E193A
As for B2, the “decrease in IL-8 promoter driven firefly luciferase (FFluc), dual luciferase assay, Ovcar4 cells” value (from here on “decrease”) was around 50%.

B3: TWIST1 R191A (other, not shown: small tags and cut ends)
chain: B1 chain with R191A
On to B3, for which the “decrease” value was around 50%.

B4: TWIST1 W190A (other, not shown: small tags and cut ends)
chain: B1 chain with W190A
For the molecule B4, the “decrease” value was around 50%.

The record behind these values is patent US20200230201A1 (CITY OF HOPE, published 2020).
